According to patent US20240352069A1, “SYNTHETIC PEPTIDE, AND COSMETIC COMPOSITION OR PHARMACEUTICAL COMPOSITION AND APPLICATION THEREOF” (SHENZHEN WINKEY TECHNOLOGY CO., LTD., priority 2021, published 2024):

Tests used:
NIH3T3 cells = test: UVB light damage repair experiment (MTT), NIH3T3; type: cell-based, mouse; conditions: UVB irradiated, each dose of 12.5 ppm-100 ppm, 24 hours
Protocol: (§1) Human keratinocytes (HaCaT) were purchased from the Kunming Cell Bank of the Type Culture Collection Committee of the Chinese Academy of Sciences, and mouse skin fibroblasts (NIH3T3) were purchased from the Shanghai Cell Bank of the Type Culture Collection Committee of the Chinese Academy of Sciences.
Take cells in good exponential growth phase, add 0.25% trypsin digestion solution, digest to make adherent cells fall off, count 1×10^5-4×10^5 cells/mL, and make cell suspension.
Cells were seeded into 96-well plates at 10,000 cells/well, and the UVB photodamage model was established when the cells reached about 80% confluent. […]
After 24 hours, add 22 μL of 5 mg/mL MTT to each well, place in an incubator and incubate for 4 hours, discard the original solution, and add 150 μL/well of DMSO. After 5 minutes, use a microplate reader to read the reference OD values at 490 nm and 630 nm wavelengths.
By establishing a UVB light-damaged cell model, administering 24 hours after ultraviolet light irradiation, and using the MTT method to detect cell proliferation activity, the ability of the peptide of the present invention to repair light-damaged cells was evaluated.

[1] = Stability of aqueous solutions (HPLC purity over time); type: physicochemical
Protocol: (§2) In Example 29, the HPLC chromatographic separation conditions were as follows: • Chromatographic column: Octadecyl bonded silica gel as filler 4.6*250 mm, 5 m • Mobile phase A: Acetonitrile (containing 0.09% trifluoroacetic acid) • Mobile phase B: 0.1% trifluoroacetic acid • Diluent: water • Flow rate: 1.0 ml/min; • Column temperature: 35° C.; • Detection wavelength: 215 nm; • Injection volume: 10 μl; • Running time: 32 min • Gradient elution table:
(§3) The test solution: Take an appropriate amount of this product and add water to dissolve and dilute to make a solution containing 1 mg per 1 ml.

HaCaT cells = test: Cell proliferation experiment (MTT), HaCaT; type: cell-based, human; conditions: 24 hours
Excerpt: as §1
• a) Take cells in good condition in exponential growth phase, add 0.25% trypsin digestion solution, digest to make adherent cells fall off, count 1-4×10^5 cells/mL, and make cell suspension; • b) Appropriately dilute 2000 cells/well of the cell suspension and inoculate it on a 96-well plate at 200 μL/well, and culture it in a constant temperature CO2 incubator for 24 hours. • c) Change the medium, add the sample to be tested, 20 μL/well, and incubate for 24 hours; • d) Add the MTT reagent into the 96-well plate, 20 μL/well, and react in the incubator for 4 hours; • e) Aspirate the supernatant, add DMSO, 150 μL/well, and shake on a plate shaker for 5 minutes; • f) After 5 minutes, use a microplate reader to read the reference OD values at 490 nm and 630 nm wavelengths, and calculate the cell viability:
MTT method is a method to detect cell survival and growth. The measured OD value is directly proportional to cell activity. The larger the OD value, the higher the cell activity.

IL-8 = test: Anti-inflammatory repair experiment, LPS-stimulated RAW264.7 cells, ELISA IL-8; type: cell-based, mouse; conditions: 100 ppm, 200 ng/mL LPS, 48 h, vs LPS group
Excerpt: Mouse mononuclear macrophages (RAW264.7 cells).
Peptide (2), tested at a concentration of 100 ppm.
• a) Take RAW264.7 cells in good exponential growth phase, add 0.25% trypsin digestion solution, digest to make adherent cells fall off, count 1-4×10^6 cells/mL, and make cell suspension; • b) Appropriately dilute 100,000 cells/well of cell suspension and inoculate it on a 6-well plate, and establish an LPS-stimulated inflammation model when the cells reached about 80% confluent. Set blank control group (control), LPS group, dexamethasone group (DXM), polypeptide group. Add 1000 μL culture medium to the blank control group; add 200 ng/mL LPS to the LPS group, add culture medium to 1000 μL; add 200 ng/mL LPS and 50 ng/mL dexamethasone to the dexamethasone group, add culture medium to 1000 μL; add 200 ng/mL LPS and peptide (2) to the polypeptide group, add culture medium to 1000 μL (final test concentration of peptide is 100 ppm). […] The OD value of each well was sequentially measured at 450 nm with a microplate reader within 15 min after the reaction was terminated. […]

[2] = Stability of powders at 25° C. and 40° C. (HPLC purity over time)
Protocol: as §2, §3

Substance: H-Ala-Pro-Phe-Arg-Met-Gly-Ile-Met-Thr-Thr-Asn-OH (H-APFRMGIMTTN-OH) [Peptide (2)]
- activity of photodamaged NIH3T3 cells (MTT) (NIH3T3 cells): can significantly increase NIH3T3 cell activity
- aqueous solution (purity) ([1]; Day 8 at room temperature): 99.122%
- aqueous solution (purity) ([1]; Day 18 at room temperature): 98.045%
- aqueous solution (purity) ([1]; Day 18 at room temperature, listed as peptide (2)): did not change significantly
- aqueous solution (purity) ([1]; Solution, Day 0): 99.291%
- impact on the activity of HaCaT cells compared among peptides (1)-(5) (HaCaT cells; 12.5-100 ppm): greater impact on the activity of HaCaT cells
- effect on the activity of HaCaT cells (MTT) (HaCaT cells; 12.5 ppm-100 ppm, vs PBS blank control): could both improve the activity of HaCaT cells, promote their proliferation
- expression of IL-8 (IL-8): significantly down-regulated
- powder (purity) ([2]; 25° C., Day 20): 99.146%
- powder (purity) ([2]; 40° C., Day 20, listed as Peptide(2)): 98.583%
- powder (purity) ([2]; 40° C., Day 20, listed as peptide (2)): remained unchanged
- powder (purity) ([2]; powder, Day 0): 99.291%
